The values below come from PMC8143792, “Sec17/Sec18 can support membrane fusion without help from completion of SNARE zippering” (eLife, 2021).

First the molecules themselves.
T1: Qa (Vam3), full-length (Saccharomyces cerevisiae, UniProt Q12241 1-283)
T1 construct: Vam3, the vacuolar Qa-SNARE of Saccharomyces cerevisiae, full length with its transmembrane anchor; whether GST was removed is told only in the cited work; also called GST-Qa (Vam3); source: E. coli, purified
T1 sequence (looked up): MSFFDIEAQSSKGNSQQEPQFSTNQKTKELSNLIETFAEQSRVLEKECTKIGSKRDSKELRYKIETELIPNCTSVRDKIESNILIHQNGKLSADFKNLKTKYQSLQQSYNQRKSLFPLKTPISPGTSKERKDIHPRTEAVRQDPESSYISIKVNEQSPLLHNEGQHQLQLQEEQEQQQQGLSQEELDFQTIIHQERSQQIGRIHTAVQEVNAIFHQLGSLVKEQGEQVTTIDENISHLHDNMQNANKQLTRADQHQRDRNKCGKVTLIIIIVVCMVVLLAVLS

B1: sQb3Δ, soluble Qb (Vti1) with amino acyl residues 1–160 (domain or fragment, Saccharomyces cerevisiae, UniProt Q04338 1-160, looked up)
chain: MSSLLISYESDFKTTLEQAKASLAEAPSQPLSQRNTTLKHVEQQQDELFDLLDQMDVEVNNSIGDASERATYKAKLREWKKTIQSDIKRPLQSLVDSGDRDRLFGDLNASNIDDDQRQQLLSNHAILQKSGDRLKDASRIANETEGIGSQIMMDLRSQRE
notes: Vti1 of Saccharomyces cerevisiae, residues 1-160; lacks the regions C-terminal to the +3 layer of the SNARE domain; also called GST-sQb3Δ; GST-Qb (Vti1)3Δ; source: E. coli Rosetta2 (DE3)-pLysS, purified (glutathione agarose), GST tag removed by TEV protease
B2: his6-R (Nyv1), full-length R-SNARE with a 6his-tag on its N-terminus (natural protein, Saccharomyces cerevisiae, UniProt Q12255 1-253, looked up)
chain: MKRFNVSYVEVIKNGETISSCFQPFQKNENYGTITSANEQITPVIFHNLIMDMVLPKVVPIKGNKVTKMSMNLIDGFDCFYSTDDHDPKTVYVCFTLVDMPKILPIRILSGLQEYESNATNELLSSHVGQILDSFHEELVEYRNQTLNSSGNGQSSNGNGQNTISDIGDATEDQIKDVIQIMNDNIDKFLERQERVSLLVDKTSQLNSSSNKFRRKAVNIKEIMWWQKVKNITLLTFTIILFVSAAFMFFYLW
notes: Nyv1, the vacuolar R-SNARE of Saccharomyces cerevisiae, full length with its membrane anchor; construct as in the cited work (PMID:22174414); also called His-R (Nyv1); source: E. coli, purified; not shown: His6, N-terminal, kept
B3: Qb (Vti1), full-length (natural protein, Saccharomyces cerevisiae, UniProt Q04338 1-217, looked up)
chain: MSSLLISYESDFKTTLEQAKASLAEAPSQPLSQRNTTLKHVEQQQDELFDLLDQMDVEVNNSIGDASERATYKAKLREWKKTIQSDIKRPLQSLVDSGDRDRLFGDLNASNIDDDQRQQLLSNHAILQKSGDRLKDASRIANETEGIGSQIMMDLRSQRETLENARQTLFQADSYVDKSIKTLKTMTRRLVANKFISYAIIAVLILLILLVLFSKFK
notes: Vti1, the vacuolar Qb-SNARE of Saccharomyces cerevisiae, full length with its transmembrane anchor; whether GST was removed is told only in the cited work; also called GST-Qb (Vti1); source: E. coli, purified
B4: sQa3Δ, soluble Qa (Vam3) with amino acyl residues 1–235 (domain or fragment, Saccharomyces cerevisiae, UniProt Q12241 1-235, looked up)
chain: MSFFDIEAQSSKGNSQQEPQFSTNQKTKELSNLIETFAEQSRVLEKECTKIGSKRDSKELRYKIETELIPNCTSVRDKIESNILIHQNGKLSADFKNLKTKYQSLQQSYNQRKSLFPLKTPISPGTSKERKDIHPRTEAVRQDPESSYISIKVNEQSPLLHNEGQHQLQLQEEQEQQQQGLSQEELDFQTIIHQERSQQIGRIHTAVQEVNAIFHQLGSLVKEQGEQVTTIDENI
notes: Vam3 of Saccharomyces cerevisiae, residues 1-235; lacks the regions C-terminal to the +3 layer of the SNARE domain; also called GST-sQa3Δ; GST-Qa (Vam3)3Δ; source: E. coli Rosetta2 (DE3)-pLysS, purified (glutathione agarose), GST tag removed by TEV protease

The target in assay [1] is B2. Briefly: pull-down; his6-R held on nickel-NTA agarose; 2.5 µM of each SNARE (R and three Q-SNAREs mixed), Buffer 151 (20 mM HEPES-NaOH, pH 7.4, 150 mM NaCl, 10% glycerol, 1% ß-OG, 20 mM imidazole), 4°C, 2 hr then 1 hr on beads; immunoblot. The note with it: both partners purified. Background: A western blot detects proteins with antibodies after separation by electrophoresis.

In another assay the target is T1, Qa (Vam3), full-length. The assay is described as above. To be noted: both partners purified.

With B1, the binding result in assay [1] is “binds”. In the case of B2, the binding result with Qa (Vam3), full-length was “binds”. Take B3: the binding result in assay [1] is “binds”. As to B4, in assay [1], the binding result is on record as “binds”.
